In publication PMC6956818, “Activation of JNK and p38 MAPK Mediated by ZDHHC17 Drives Glioblastoma Multiforme Development and Malignant Progression” (Theranostics, 2020):

biological target: T1, ZDHHC17 (Homo sapiens, UniProt Q8IUH5); assay: ex vivo kinase assay of ZDHHC17-activated MAP2K4 with JNK2 substrate (western blot); supported by co-IP disruption in U118MG cells and ZDHHC17 mutants; no direct binding measurement; assay type: biochemical; settings: not given
T1 construct: purified ZDHHC17 (50 ng) with recombinant MAP2K4; with MAP2K4
T1 sequence (Q8IUH5 whole entry): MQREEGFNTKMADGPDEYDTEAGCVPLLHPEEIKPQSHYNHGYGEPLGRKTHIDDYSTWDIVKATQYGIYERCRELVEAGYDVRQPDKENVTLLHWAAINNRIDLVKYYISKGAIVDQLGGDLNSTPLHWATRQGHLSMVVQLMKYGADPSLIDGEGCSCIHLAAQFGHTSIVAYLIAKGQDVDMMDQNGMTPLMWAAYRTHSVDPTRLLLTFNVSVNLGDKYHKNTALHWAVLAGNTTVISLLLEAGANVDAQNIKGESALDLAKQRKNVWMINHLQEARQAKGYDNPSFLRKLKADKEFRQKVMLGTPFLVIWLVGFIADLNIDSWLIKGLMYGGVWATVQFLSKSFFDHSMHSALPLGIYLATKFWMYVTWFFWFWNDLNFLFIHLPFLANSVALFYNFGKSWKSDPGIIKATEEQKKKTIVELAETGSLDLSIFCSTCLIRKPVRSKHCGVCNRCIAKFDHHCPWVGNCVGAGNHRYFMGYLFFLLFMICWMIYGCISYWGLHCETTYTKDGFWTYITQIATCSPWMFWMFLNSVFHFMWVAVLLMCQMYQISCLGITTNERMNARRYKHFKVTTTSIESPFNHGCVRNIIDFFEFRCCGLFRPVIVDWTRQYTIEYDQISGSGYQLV
T1 sequence (P45985 2-399 partner): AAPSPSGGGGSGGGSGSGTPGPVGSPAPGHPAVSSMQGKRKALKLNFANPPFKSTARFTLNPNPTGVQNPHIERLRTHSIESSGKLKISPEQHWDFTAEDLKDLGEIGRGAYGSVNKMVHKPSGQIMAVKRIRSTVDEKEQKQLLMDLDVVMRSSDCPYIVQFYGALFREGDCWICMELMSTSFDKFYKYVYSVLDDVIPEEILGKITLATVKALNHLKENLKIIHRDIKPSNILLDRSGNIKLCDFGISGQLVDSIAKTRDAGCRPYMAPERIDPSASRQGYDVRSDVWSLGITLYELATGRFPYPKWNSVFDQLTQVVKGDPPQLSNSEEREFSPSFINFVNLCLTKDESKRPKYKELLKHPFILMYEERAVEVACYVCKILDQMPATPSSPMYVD

| IC50 [nM] | Compound |
| --- | --- |
| 800 | O=c1c(-c2ccc(O)cc2)coc2cc(O)cc(O)c12 [genistein] |

biological target: Myc-tagged ZDHHC17 ANK (1-7); assay: co-immunoprecipitation, quantified immunoblot; settings: HEK293 cell lysates; parent: est. 1.0; read off a plot

| ratio to parent | Compound |
| --- | --- |
| 0.35 | FLAG-tagged MAP2K4 protein kinase c (PKc) domain fragment N222G |
| 0.83 | FLAG-tagged MAP2K4 protein kinase c (PKc) domain fragment S80G |
| 0.85 | FLAG-tagged MAP2K4 protein kinase c (PKc) domain fragment E221G |
| 0.73 | FLAG-tagged MAP2K4 protein kinase c (PKc) domain fragment R154G |
| 0.47 | FLAG-tagged MAP2K4 protein kinase c (PKc) domain fragment W95G |
| 0.5 | FLAG-tagged MAP2K4 protein kinase c (PKc) domain fragment M153G |
